B4: 14-3-3n (At3g02520; GRF7) (natural protein)
chain: MSSSREENVYLAKLAEQAERYEEMVEFMEKVAKTVDTDELTVEERNLLSVAYKNVIGARRASWRIISSIEQKEESRGNDDHVSIIKDYRGKIETELSKICDGILNLLDSHLVPTASLAESKVFYLKMKGDYHRYLAEFKTGAERKEAAESTLVAYKSAQDIALADLAPTHPIRLGLALNFSVFYYEILNSPDRACSLAKQAFDEAISELDTLGEESYKDSTLIMQLLRDNLTLWNSDINDEAGGDEIKEASKHEPEEGKPAETGQ

The target in assay [1] is B4. The assay can be described thus: native gel or EMSA. (In general: A gel shift assay detects complexes by their altered migration in electrophoresis.)
In assay [2] the target is T1, FD, full-length, phosphomimic variant T282E (Arabidopsis thaliana, UniProt Q84JK2 1-285, T282E).
T1 sequence: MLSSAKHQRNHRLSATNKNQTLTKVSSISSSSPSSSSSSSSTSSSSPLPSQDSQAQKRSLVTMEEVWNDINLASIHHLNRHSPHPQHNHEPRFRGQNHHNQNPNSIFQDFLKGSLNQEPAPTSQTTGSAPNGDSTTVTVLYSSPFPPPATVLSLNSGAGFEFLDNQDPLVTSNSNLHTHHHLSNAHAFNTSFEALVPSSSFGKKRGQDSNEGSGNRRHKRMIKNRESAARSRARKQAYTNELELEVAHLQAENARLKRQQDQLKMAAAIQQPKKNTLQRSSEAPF
The assay can be described thus: native gel or EMSA.

The results in this text go back to article doi:10.1101/483925 (bioRxiv, 2018).

B1: FLOWERING LOCUS T (FT) (natural protein)
chain: not shown
Consider B1, for which the binding result in assay [1] is listed as “binds”.

B2: TERMINAL FLOWER 1 (TFL1) (natural protein)
chain: not shown
Consider B2, for which, in assay [1], the binding result is given as “binds”.

B3: FD-C_T282E, phosphomimic variant of the C-terminal domain of FD (amino acids 203-285) (domain or fragment)
chain: KKRGQDSNEGSGNRRHKRMIKNRESAARSRARKQAYTNELELEVAHLQAENARLKRQQDQLKMAAAIQQPKKNTLQRSSEAPF
Consider B3, for which the binding result in assay [1] is “binds”.

Consider B4, for which the binding result in assay [2] is “binds”.
